Assay results as given in patent US20240270821A1, “GIP/GLP1/GCG TRI-RECEPTOR AGONISTS AND USES THEREOF” (priority 2023, published 2024).
Residue numbers refer to the chain shown, from its start.

T1: human GIP receptor (human) (UniProt P48546)
T1 sequence (looked up): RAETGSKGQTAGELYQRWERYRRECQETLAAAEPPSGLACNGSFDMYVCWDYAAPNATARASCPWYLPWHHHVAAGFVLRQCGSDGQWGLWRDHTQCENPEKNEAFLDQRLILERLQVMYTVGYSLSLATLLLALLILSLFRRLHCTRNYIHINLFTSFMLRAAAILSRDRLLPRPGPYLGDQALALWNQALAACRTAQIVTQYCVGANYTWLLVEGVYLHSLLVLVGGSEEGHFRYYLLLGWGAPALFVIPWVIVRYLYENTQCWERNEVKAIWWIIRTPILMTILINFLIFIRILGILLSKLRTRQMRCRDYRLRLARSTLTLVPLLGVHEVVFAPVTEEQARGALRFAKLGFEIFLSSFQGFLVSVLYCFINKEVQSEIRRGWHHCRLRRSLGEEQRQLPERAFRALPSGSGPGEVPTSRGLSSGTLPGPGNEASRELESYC

B1: Example 214 (peptide)
chain: YXQGTFTSDFSXXLDKKAQXAFIEYLLEAGPSSXAPPPSGT
modifications: Lys acylated with AEEA-γGlu-C18 diacid; non-natural residues; C-amide; synthetic construct; SITE 2: note = 2-Aminoisobutyric Acid; SITE 12: note = L-ornithine; SITE 13: note = alpha-methyl-leucine; SITE 17: note = Lysine is chemically modified through conjugation of the epsilon-amino group of the Lysine side chain with (2-[2-(2-Amino-ethoxy)-ethoxy]-acetyl)-(gamma-Glu)
B2: Example 276 (peptide)
chain: B1 chain with A29X, X34G
modifications: synthetic construct; SITE 2: note = 2-Aminoisobutyric Acid; SITE 12: note = L-ornithine; SITE 13: note = alpha-methyl-leucine; SITE 17: note = Lysine is chemically modified through conjugation of the epsilon-amino group of the Lysine side chain with (gamma-Glu)-(2-[2-(2-Amino-ethoxy)-ethoxy]-acetyl)
B3: Example 242 (peptide)
chain: B1 chain with A29X, P31X, X34G, T41S
modifications: Aib, Orn, αMeL, 4Pal; AEEA-γGlu-C18 diacid on Lys; amide; synthetic construct; SITE 2: note = 2-Aminoisobutyric Acid; SITE 12: note = L-ornithine; SITE 13: note = alpha-methyl-leucine; SITE 17: note = Lysine is chemically modified through conjugation of the epsilon-amino group of the Lysine side chain with (2-[2-(2-Amino-ethoxy)-ethoxy]-acetyl)-(gamma-Glu)
B4: Example 256 (peptide)
chain: B1 chain with X34G, A35H, T41X
modifications: synthetic construct; SITE 2: note = 2-Aminoisobutyric Acid; SITE 12: note = L-ornithine; SITE 13: note = alpha-methyl-leucine; SITE 17: note = Lysine is chemically modified through conjugation of the epsilon-amino group of the Lysine side chain with (2-[2-(2-Amino-ethoxy)-ethoxy]-acetyl)2-(gamma-Glu)
B5: Example 239 (peptide)
chain: B1 chain with A29X, X34G, A35X, T41S
modifications: Aib, Orn, alpha-methyl-Leu, lipidated Lys, C-terminal amide; synthetic construct; SITE 2: note = 2-Aminoisobutyric Acid; SITE 12: note = L-ornithine; SITE 13: note = alpha-methyl-leucine; SITE 17: note = Lysine is chemically modified through conjugation of the epsilon-amino group of the Lysine side chain with (2-[2-(2-Amino-ethoxy)-ethoxy]-acetyl)-(gamma-Glu)
B6: Example 241 (peptide)
chain: B1 chain with A29X, P31H, X34G, T41S
modifications: non-natural residues; C18 diacid-γGlu-AEEA on Lys; C-terminal amide; synthetic construct; SITE 2: note = 2-Aminoisobutyric Acid; SITE 12: note = L-ornithine; SITE 13: note = alpha-methyl-leucine; SITE 17: note = Lysine is chemically modified through conjugation of the epsilon-amino group of the Lysine side chain with (2-[2-(2-Amino-ethoxy)-ethoxy]-acetyl)-(gamma-Glu)
B7: Example 278 (peptide)
chain: B1 chain with A29X, X34G
modifications: synthetic construct; SITE 2: note = 2-Aminoisobutyric Acid; SITE 12: note = L-ornithine; SITE 13: note = alpha-methyl-leucine; SITE 17: note = Lysine is chemically modified through conjugation of the epsilon-amino group of the Lysine side chain with (2-[2-(2-Amino-ethoxy)-ethoxy]-acetyl)-(gamma-Glu)
B8: Example 254 (peptide)
chain: B1 chain with X34G, A35X, T41S
modifications: synthetic construct; SITE 2: note = 2-Aminoisobutyric Acid; SITE 12: note = L-ornithine; SITE 13: note = alpha-methyl-leucine; SITE 17: note = Lysine is chemically modified through conjugation of the epsilon-amino group of the Lysine side chain with (2-[2-(2-Amino-ethoxy)-ethoxy]-acetyl)2-(gamma-Glu)
B9: Example 253 (peptide)
chain: B1 chain with X34G, A35H, T41S
modifications: synthetic construct; SITE 2: note = 2-Aminoisobutyric Acid; SITE 12: note = L-ornithine; SITE 13: note = alpha-methyl-leucine; SITE 17: note = Lysine is chemically modified through conjugation of the epsilon-amino group of the Lysine side chain with (2-[2-(2-Amino-ethoxy)-ethoxy]-acetyl)2-(gamma-Glu)
B10: Example 255 (peptide)
chain: B1 chain with X34G, A35H, T41H
modifications: synthetic construct; SITE 2: note = 2-Aminoisobutyric Acid; SITE 12: note = L-ornithine; SITE 13: note = alpha-methyl-leucine; SITE 17: note = Lysine is chemically modified through conjugation of the epsilon-amino group of the Lysine side chain with (2-[2-(2-Amino-ethoxy)-ethoxy]-acetyl)2-(gamma-Glu)
B11: Example 238 (peptide)
chain: B1 chain with A29X, T41S
modifications: Aib, Orn, αMeL, lipidated Lys, C-terminal amide; synthetic construct; SITE 2: note = 2-Aminoisobutyric Acid; SITE 12: note = L-ornithine; SITE 13: note = alpha-methyl-leucine; SITE 17: note = Lysine is chemically modified through conjugation of the epsilon-amino group of the Lysine side chain with (2-[2-(2-Amino-ethoxy)-ethoxy]-acetyl)-(gamma-Glu)
B12: Example 250 (peptide)
chain: B1 chain with Y25W, A29G, X34G, S39T, T41S
modifications: synthetic construct; SITE 2: note = 2-Aminoisobutyric Acid; SITE 12: note = L-ornithine; SITE 13: note = alpha-methyl-leucine; SITE 17: note = Lysine is chemically modified through conjugation of the epsilon-amino group of the Lysine side chain with (2-[2-(2-Amino-ethoxy)-ethoxy]-acetyl)-(gamma-Glu)

The binders below were run against hGLP-1R (Homo sapiens, UniProt P43220) (assay: cell-based or functional assay).
Chain of hGLP-1R (P43220 24-463): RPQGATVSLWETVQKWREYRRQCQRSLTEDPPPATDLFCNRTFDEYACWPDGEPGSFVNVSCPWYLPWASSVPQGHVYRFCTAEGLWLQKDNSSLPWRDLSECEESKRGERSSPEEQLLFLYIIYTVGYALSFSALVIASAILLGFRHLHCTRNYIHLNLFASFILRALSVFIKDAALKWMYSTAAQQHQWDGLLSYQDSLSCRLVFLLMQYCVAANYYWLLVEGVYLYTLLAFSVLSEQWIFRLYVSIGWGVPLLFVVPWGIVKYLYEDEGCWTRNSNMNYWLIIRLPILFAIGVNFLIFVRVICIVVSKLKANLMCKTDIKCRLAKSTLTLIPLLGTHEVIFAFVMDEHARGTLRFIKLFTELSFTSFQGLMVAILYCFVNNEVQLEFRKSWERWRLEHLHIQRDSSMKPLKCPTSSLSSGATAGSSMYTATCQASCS

Row | Binder | Relative cAMP EC50 [nM] | cAMP Rel EC50, nM (1% HSA) [nM] | cAMP Rel EC50 (in the presence of 1% HSA) [nM]
1 | B1 | 1.22 | 186 | 
2 | B2 | 2.61 |  | 103
3 | B3 | 3.42 | 242 | 
4 | B4 | 2.87 |  | 235
5 | B5 | 2.9 | 419 | 
6 | B6 | 2.3 |  | 
7 | B7 | 4.11 |  | 241
8 | B8 | 3.08 |  | 265
9 | B9 | 2.2 |  | 355
10 | B10 | 1.9 |  | 272
11 | B11 | 2.71 | 262 | 
12 | B12 | 2.08 |  | 194

The binders below were run against T1, human GIP receptor (human) (assay: cell-based or functional assay).

Row | Binder | Relative cAMP EC50 [nM] | cAMP Rel EC50, nM (1% HSA) [nM] | cAMP Rel EC50 (in the presence of 1% HSA) [nM]
13 | B1 | 0.103 | 15.1 | 
14 | B2 | 0.0708 |  | 6.28
15 | B3 | 0.0916 | 5.94 | 
16 | B4 | 0.176 |  | 17.4
17 | B5 | 0.0503 | 12 | 
18 | B6 | 0.0748 |  | 
19 | B7 | 0.0963 |  | 7.69
20 | B8 | 0.121 |  | 21.4
21 | B9 | 0.115 |  | 26.6
22 | B10 | 0.107 |  | 21.9
23 | B11 | 0.0909 | 8.78 | 
24 | B12 | 0.154 |  | 11.7

These binders were tested against human GLP-1R (SNAP-GLP-1R expressed in HEK293 cells) (human) (UniProt P43220) (assay: cell-based or functional assay).
Chain of human GLP-1R (SNAP-GLP-1R expressed in HEK293 cells) (human) (P43220 24-463): as above

Row | Binder | GLP1R Internalization EC50 [nM] | Internalization % TOP [%]
25 | B1 | 50.1 | 41.7
26 | B2 | 237 | 68.4
27 | B3 | 56 | 38.2
28 | B4 | 87.8 | 43.5
29 | B5 | 72.6 | 42.9
30 | B6 | 64.4 | 37.6
31 | B7 | 251 | 68.6
32 | B8 | 31.9 | 47.8
33 | B9 | 81.6 | 55.2
34 | B10 | 47.1 | 51.8
35 | B11 | 32.1 | 38.2
36 | B12 | 97 | 45

Each binder was assayed against human glucagon receptor (human) (UniProt P47871) (assay: cell-based or functional assay).
Chain of human glucagon receptor (human) (P47871 26-477): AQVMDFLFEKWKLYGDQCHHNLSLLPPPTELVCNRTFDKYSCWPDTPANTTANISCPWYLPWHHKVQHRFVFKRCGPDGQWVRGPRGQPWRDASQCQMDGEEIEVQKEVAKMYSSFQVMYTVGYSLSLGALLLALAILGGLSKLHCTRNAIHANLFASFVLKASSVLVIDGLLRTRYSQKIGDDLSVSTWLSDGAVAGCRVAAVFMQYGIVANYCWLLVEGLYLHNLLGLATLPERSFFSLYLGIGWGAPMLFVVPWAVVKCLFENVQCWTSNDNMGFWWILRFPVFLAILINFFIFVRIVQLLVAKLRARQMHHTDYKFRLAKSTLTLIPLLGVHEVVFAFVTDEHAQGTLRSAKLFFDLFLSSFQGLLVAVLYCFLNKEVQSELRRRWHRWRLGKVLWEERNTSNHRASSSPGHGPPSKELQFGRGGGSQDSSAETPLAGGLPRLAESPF

Row | Binder | Relative cAMP EC50 [nM] | cAMP Rel EC50, nM (1% HSA) [nM] | cAMP Rel EC50 (in the presence of 1% HSA) [nM]
37 | B1 | 2.49 | 302 | 
38 | B2 | 2.82 |  | 113
39 | B3 | 3.5 | 484 | 
40 | B4 | 5.71 |  | 625
41 | B5 | 2.14 | 693 | 
42 | B6 | 2.71 |  | 
43 | B7 | 4.45 |  | 274
44 | B8 | 4.9 |  | 767
45 | B9 | 6.62 |  | 963
46 | B10 | 5.48 |  | 883
47 | B11 | 2.78 | 334 | 
48 | B12 | 3.81 |  | 201
